Data set [1] can be described thus: folding stability dG unfold from trypsin proteolysis; higher = more stable. The procedure, abridged:
(§1)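 Only designs with AlphaFold2 dimer inter-PAE above 15 were retained; each was a mini-protein under 80 residues with no cysteine, in a PA-tagged cDNA display construct. After digestion with trypsin and chymotrypsin and sequencing, K50 was inferred by Bayesian fitting of counts, and unfolding free energy was derived per protease or combined against a sequence-predicted unfolded-state K50 and a shared folded-state K50.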

Data set [2] in a line: folding stability dG unfold from chymotrypsin proteolysis; higher = more stable. An outline of the steps: as §1
Data set [3] is described as follows: folding stability dG unfold (combined trypsin and chymotrypsin); higher = more stable. The procedure, abridged:
as §1

± gives the half width of the 95% confidence interval.

For the sequence “SAGGSAGGSAYELVIVGTPELALKLAKEFAEKNPESVANLKIEKITAALPVPFLSPDGIPESAGGSAGGSAG [r3_89_TrMRF]”, the “folding stability dG unfold” value in data set [1] amounted to 0.0947 ± 0.1 kcal/mol; in data set [2] it was 0.207 ± 0.39 kcal/mol; in data set [3] it was 0.0822 ± 0.24 kcal/mol.
For “SAGGSAGGSDDSPEDAQKQQAKPEIKIKLHIRFPDGKEYDLDEPFEFPINGQPMRISSIDIVYSAGGSAGGS [r12_43_TrROS]” the same measures were 0.419 ± 0.037 kcal/mol, 1.18 ± 0.21 kcal/mol and 0.823 ± 0.11 kcal/mol.
Regarding “SAGGSAGGSDEEVEVTLYPVDPSAPDDTVYYAEVTFPNGLVARYRFRKKDGKVEGELVEVKPASAGGSAGGS [r12_1049_TrMRF]”, the entries for the “folding stability dG unfold” value in data set [1], in data set [2] and in data set [3] were 1.65 ± 0.048 kcal/mol, 1.95 ± 0.11 kcal/mol and 1.91 ± 0.083 kcal/mol, respectively.
Regarding “SAGGSAGGSDFKPVLVIELDDKTVLVFELEDGTVLVLAENEIALIPASIPAEHFPEDAKLDLDSAGGSAGGS [r12_594_TrMRF]”, the “folding stability dG unfold” value in data set [1] is 2.04 ± 0.12 kcal/mol; in data set [2] it was 1.76 ± 0.052 kcal/mol; in data set [3], 1.85 ± 0.065 kcal/mol.
“SAGGSAGGSDLVRVEMLITKIVPGTGDPVETVKIEVEVPRSEIPKVIEEIPEGYEVTEIKFIPESAGGSAGG [r6_777_JUSTAS]”: the “folding stability dG unfold” value in data set [1] was determined as 2.05 ± 0.079 kcal/mol; in data set [2], 1.18 ± 0.062 kcal/mol; in data set [3] it was 1.57 ± 0.11 kcal/mol.
For the sequence “SAGGSAGGSDMTMTYIIPLPDYAIVISFKIEITEVEYNPENGKPVKFRFDIEIKIEVFPPGDLSAGGSAGGS [r12_809_TrROS]”, the figures for the “folding stability dG unfold” value in data set [1], in data set [2] and in data set [3] were 3.46 ± 0.21 kcal/mol, 4.68 ± 0.19 kcal/mol and 4.38 ± 0.29 kcal/mol, respectively.
For “SAGGSAGGSDPAKKPVYLLATVEVEIGEVVDPNTGEPSHEHRVTVRFLITIDPDGNISISSLTSAGGSAGGS [r12_438_TrMRF]”, the entries for the “folding stability dG unfold” value in data set [1], in data set [2] and in data set [3] were 2.9 ± 0.2 kcal/mol, 3.25 ± 0.18 kcal/mol and 3.15 ± 0.21 kcal/mol, respectively.
For “SAGGSAGGSDPNNEPVYIMMKFEIEIKVERDPENGKPKAEDPITITFIIRIPPNGNLEIGIMISAGGSAGGS [r12_438_TrROS]” the same measures were 3.52 ± 0.11 kcal/mol, 4.33 ± 0.13 kcal/mol and 4.11 ± 0.12 kcal/mol.
With “SAGGSAGGSDPPVVTVEVKEETLPNGEKIYIVTVTREDGTTKTLKFPASTSEEEIKEKVEKLLSAGGSAGGS [r12_1019_JUSTAS]”, the “folding stability dG unfold” value in data set [1] turned out to be 3.64 ± 0.3 kcal/mol; in data set [2], 4.08 ± 0.18 kcal/mol; in data set [3] it was 4.17 ± 0.35 kcal/mol.
On to “SAGGSAGGSDTIVVTLPDGTKITYDKENNEVYVYNLKTKKKIKFPKNMSLEEVLKAIKKLKKPSAGGSAGGS [r12_832_TrROS_Hall]”, for which the figures for the “folding stability dG unfold” value in data set [1], in data set [2] and in data set [3] were 2 ± 0.07 kcal/mol, 2.982 ± 0.026 kcal/mol and 2.71 ± 0.082 kcal/mol, respectively.
Turning to “SAGGSAGGSDWRPIKIWYPLDDLEQIKEKIREDGITVEINVQRDPNGKLYAPVTIWVPKGAKPSAGGSAGGS [r12_653_TrROS]”, the “folding stability dG unfold” value worked out at 0.998 ± 0.039 kcal/mol in data set [1], 1.57 ± 0.032 kcal/mol in data set [2] and 1.32 ± 0.15 kcal/mol in data set [3].
On the same counts, the results for “SAGGSAGGSEAKIELEYDEETNTLTVRIEVDGELYEERIEVTIEPAPPPPPPVEVVVVELPEESAGGSAGGS [r12_70_TrROS_Hall]” are 1.56 ± 0.55 kcal/mol, 2.71 ± 0.21 kcal/mol and 2.4 ± 0.49 kcal/mol.
For “SAGGSAGGSEATLEVEVRVDGVLVRVRVEYDLETQELRIEVEVRPLPPPPVEVRTEYRSLEDLSAGGSAGGS [r12_813_TrROS_Hall]” the same measures were 1.23 ± 0.052 kcal/mol, 1.59 ± 0.26 kcal/mol and 1.5 ± 0.27 kcal/mol.
Regarding “SAGGSAGGSEEEKLKKLKEKLKPPKIKVKIEVKVEYDKETGKLKVEATVEINGKKYKLTIEFPSAGGSAGGS [r20_230_TrROS_Hall]”, the entries for the “folding stability dG unfold” value in data set [1], in data set [2] and in data set [3] were 3.11 ± 0.19 kcal/mol, 4.19 ± 0.13 kcal/mol and 3.49 ± 0.71 kcal/mol, respectively.
Turning to “SAGGSAGGSEEIKKAIEEALKKMKPGEEKEVTIEIYDKKTNKKIAKIKIRIRRKKDGKLEIEFSAGGSAGGS [r20_151_TrROS_Hall]”, the results for the “folding stability dG unfold” value in data set [1], in data set [2] and in data set [3] were 4.01 ± 0.2 kcal/mol, 3.6 ± 0.19 kcal/mol and 3.77 ± 0.19 kcal/mol, respectively.
Regarding “SAGGSAGGSEEILKALGVEPGDEVEIEMTPEELEELLALPGVEPVRVEERPDGRLRVRIRILPSAGGSAGGS [r12_750_TrROS_Hall]”, the “folding stability dG unfold” value in data set [1] amounted to 3.14 ± 0.11 kcal/mol; in data set [2] it was 2.93 ± 0.077 kcal/mol; in data set [3], 2.99 ± 0.1 kcal/mol.
As for “SAGGSAGGSEIKIEKAEITVEYDEETGVFRATITLPDGYRITAEFRLRPDGSLELTRVEIEEVSAGGSAGGS [r12_111_TrROS_Hall]”, the “folding stability dG unfold” value in data set [1] stood at 4.3 ± 0.19 kcal/mol; in data set [2], 5.37 ± 0.11 kcal/mol; in data set [3], 5.29 ± 0.25 kcal/mol.
For “SAGGSAGGSEIPDIEITIDSIEFFPDGTVRITATVRFPGGGTAKITLTLPAPPAEYEPPSDLLSAGGSAGGS [r12_558_TrMRF]” the same measures were 1.49 ± 0.2 kcal/mol, 1.12 ± 0.25 kcal/mol and 1.39 ± 0.5 kcal/mol.
With “SAGGSAGGSEKIKEALKELGYDVEIEEIEVKKNKNGKLEIKIKLKPGMSEEEKKRIEEALKKLSAGGSAGGS [r12_352_TrROS_Hall]”, the “folding stability dG unfold” value was 3.18 ± 0.4 kcal/mol in data set [1], 2.79 ± 0.17 kcal/mol in data set [2] and 2.84 ± 0.3 kcal/mol in data set [3].
Consider “SAGGSAGGSEKTIKITIKVKVKKKVTVKNKNGEKKTFEFEEKTYTLTTIKFDSKEDALKALKKSAGGSAGGS [r12_452_TrROS_Hall]”, for which the “folding stability dG unfold” value was found to be 1.35 ± 0.044 kcal/mol in data set [1], 2.48 ± 0.073 kcal/mol in data set [2] and 2.17 ± 0.22 kcal/mol in data set [3].
Turning to “SAGGSAGGSEPVVIKVTVTNENGEKRTITLPEIEVEPGETIEEIAAALAAEPGVKEVKVEVVPSAGGSAGGS [r12_199_TrROS_Hall]”, the “folding stability dG unfold” value in data set [1] was determined as 0.702 ± 0.022 kcal/mol; in data set [2] it was 0.444 ± 0.039 kcal/mol; in data set [3] it was 0.605 ± 0.069 kcal/mol.
For “SAGGSAGGSERWVKIWFPPGGTLEEASKMIEEWAQQLGLPITKIDEIEWDPGNGRVEITIRLKSAGGSAGGS [r12_131_TrROS]” the same measures were 1.93 ± 0.046 kcal/mol, 2.013 ± 0.015 kcal/mol and 2.02 ± 0.062 kcal/mol.
Turning to “SAGGSAGGSFFIRVEYPKGKTRTYPIKNGPIEEALEQLPPGWDNVKVSIYNGNKPVEFEIPLPSAGGSAGGS [r12_767_TrROS]”, the “folding stability dG unfold” value was found to be 0.389 ± 0.13 kcal/mol in data set [1], 1.1 ± 0.074 kcal/mol in data set [2] and 0.806 ± 0.091 kcal/mol in data set [3].
Turning to “SAGGSAGGSFKAPPGEKYVLKLRSPENGQEFMVEFTPDNIKISNPNDEKMPFPPDDITDVKDVSAGGSAGGS [r20_35_TrROS]”, the “folding stability dG unfold” value in data set [1] is -0.612 ± 0.33 kcal/mol; in data set [2] it was 0.0465 ± 0.24 kcal/mol; in data set [3] it was -0.109 ± 0.17 kcal/mol.
On the same counts, the results for “SAGGSAGGSFRIKEIEYKPPKGMIEVEIEFPNGRPIKIHINPDEGWDPIYFGGKPIFPIRIEPSAGGSAGGS [r12_789_TrROS]” are -0.206 ± 0.1 kcal/mol, 0.859 ± 0.13 kcal/mol and 0.534 ± 0.11 kcal/mol.
On the same counts, the results for “SAGGSAGGSGDKDEVDPNKNISPIPPVKATIFPPDGTPRTVTFTSEEELKAYAEARGWTIEVPSAGGSAGGS [r12_244_JUSTAS]” are 0.000698 ± 0.12 kcal/mol, 0.231 ± 0.29 kcal/mol and 0.318 ± 0.23 kcal/mol.

(Values after the supplement of paper PMC12764529.)
